The values below come from patent US20090036382A1, “TGF-Beta Modulators and Use Thereof” (Universita' Degli Studi Di Padova, priority 2006, published 2009).

The subject of assay [1] is TGF-β activated p15 promoter. Put plainly: p15-lux luciferase reporter in MEF primary cultures from wild type and emilin1 -/- mice. The format is cell-based, mouse. Conditions: FIG. 3A, 3B. From the text:
MEF primary cultures were transfected with plasmid p15-lux (p15-luciferase) (Li et al., 1995) driving transcription of the luciferase marker gene under control of the p15^INK4B gene promoter. Since the p15 promoter is activated by TGF-β (i.e. p15 is a TGF-β target gene), the presence of the growth factor induces higher luciferase levels, which can be measured with a luminometer.
(A reporter such as luciferase makes a cellular process visible.)

Assay [2] deals with pro TGF-β1. Put plainly: CAGA12-lux luciferase reporter in HEK293T cells co-transfected with pro TGF-β1 vector. In kind it is cell-based, human. Conditions: for Effect on luciferase expression induced by pro TGF-β1: CAGA12-lux, co-transfection with pro TGF-β1 vector, FIG. 2B, 2C. The text has this:
• The construct for emilin 1 expression was engineered in pCS2 vector (Rupp R. A. et al., 1994, Genes Dev 8, 1311-1323) (for a physical map of the vector, see the site faculty.washington.edu/rtmoon/pcs2+.html) as described (Zanetti M. et al., 2004, Mol Cell Biol 24, 638-650); the vector used for proTGF-β expression in MEF and HEK293T cells is pCDNA3.1 (Invitrogen). Vectors containing the coding sequence for human pro TGF-β are described in Young and Murphy-Ullrich, 2004 (Young and Murphy-Ullrich, 2004, J Biol Chem 279, 38032-38039). The human pro TGF-β cDNA sequence is reported in the data bank (NP_000660; protein 000651). • The vector for Furin/SPC 1 expression is pCDNA3.1 (Invitrogen) • p15 and CAGA 12 promoter fragments are described in Jonk L. J. et al., 1998, J Biol Chem 273, 21145-21152 […]. • Constructs containing Flag sequences are described in Young G. D and Murphy-Ullrich J E, 2004, J Biol Chem 279, 38032-38039. • Constructs containing the Flag epitope (e.g. Flag-EMI-domain-GPI) were prepared as described in Chubet R G et al. Biotechniques 1996; 20(1):136-141 and detected by anti-Flag antibody (Kodak Inc.). • Constructs containing the GPI anchor were prepared as described in the Manual “Current Protocols in Cell Biology” Howard R. Petty Wayne State University, Detroit, Mich.; Juan S. Bonifacino, Mary Dasso, Joe B. Harford, Jennifer Lippincott-Schwartz, and Kenneth M. Yamada (eds.), Copyright C 2003 John Wiley & Sons, Inc. (GPI-anchor). In the construct Flag-EMI domain-GPI, the Flag sequence was inserted at the N-terminus after the signal peptide, while the GPI-anchor sequence was placed at the COOH-terminal end. • The construct emilin 1-KDEL was obtained by inserting the KDEL coding sequence described by Munro S., and Pelham, H. R., 1987, Cell 48, 899-907 upstream the emilin 1 STOP codon. • The construct containing the type II TGF-β receptor with HA epitope was described in Wrana J. L. et al., 1994, Nature 370, 341-347. • supplier of the drugs used: SP600125 (Calbiochem), SB431542 (Tocris). • Purified recombinant LAP and TGF-β1 proteins were purchased from (R&D Systems)
To verify how emilin or the EMI domain can contrast TGF-β1 activity independently from receptor binding, HEK293T cells were transfected with a construct coding luciferase placed under control of a TGF-β activated promoter: CAGA12-lux (Jonk et al., 1998) alone or in combination with a emilin1 expression vector (500 ng) as shown in FIG. 2B. After transfection, cells were treated (black bar) or not treated (white bar) with 5 ng/ml recombinant TGF-1 (lanes 1 and 2). Column bars from 3 to 6 report luciferase expression values in experiments with cells co-transfected with the expression vector for emilin1 (or EMI-domain or emilin1ΔEMI) alone (white bars) or in combination with the vector encoding pro TGF-β1 (black bars). Values show the mean±st. dev.
As further validation of the above observations, HEK293T cells were cotransfected with expression plasmids carrying the cDNAs shown in the summary scheme above the figure, along with CAGA12-lux and CMV-lacZ constructs, and luciferase expression levels were measured.

Assay [3] has as its target T1, pro TGF-β1 (human TGF-β1 precursor) (human, UniProt P01137 30-390).
T1 construct: Expressed from pCDNA3.1 in HEK293T cells; also called TGF-β precursor; Flag-proTGF-β1
Put plainly: co-immunoprecipitation with anti-Flag antibodies from HEK293T cell extracts, western blot with anti-LAP antibodies. The protocol: To verify whether TGF-β or its precursor is the emilin target, HEK293T cells were transfected with a plasmid encoding pro TGF-β1 alone or with an expression plasmid for Flag-EMI domain-GPI. Cell extracts were prepared and subjected to the immunoprecipitation procedure with anti-Flag antibodies, as described in example 2. Immunoprecipitates were subjected to SDS-PAGE and Western blotting (WB) with anti-LAP antibodies.
(Immunoblotting shows a protein as a band on a membrane.)

T1 sequence (P01137 30-390): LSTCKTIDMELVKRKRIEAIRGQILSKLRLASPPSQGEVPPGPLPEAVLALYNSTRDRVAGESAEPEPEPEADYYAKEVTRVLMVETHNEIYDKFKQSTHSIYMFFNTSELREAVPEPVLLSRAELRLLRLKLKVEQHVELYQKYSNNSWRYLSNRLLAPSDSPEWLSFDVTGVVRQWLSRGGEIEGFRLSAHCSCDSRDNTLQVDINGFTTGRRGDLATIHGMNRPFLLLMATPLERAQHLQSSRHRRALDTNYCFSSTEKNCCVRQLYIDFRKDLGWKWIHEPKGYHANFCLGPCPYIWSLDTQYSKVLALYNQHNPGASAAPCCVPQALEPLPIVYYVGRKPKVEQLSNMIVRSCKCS

On to `NC(=O)c1ccc(-c2nc(-c3ccc4c(c3)OCO4)c(-c3ccccn3)[nH]2)cc1` [SB431542], for which the “p15-lux transcriptional response in normal versus emilin1 -/- MEF cells after drug treatment” value in assay [1] is “a similar response is measured in normal and mutant cells”.
For the molecule “emilin 2: emilin family protein, GenBank NP-114437”, the “Effect on luciferase expression induced by pro TGF-β1” value (from here on “Effect”) in assay [2] is “antagonize TGF-β activity at the of pro-TGF-β level”.

B1: Flag-EMI-domain-GPI (emilin-1 EMI domain tagged with the Flag epitope and bound to a GPI anchor) (other, not shown: small tags and cut ends; large carriers)
chain: RHRNWCAYVVTRTVSCVLEDGVETYVKYQPCAWGQPQCPQSIMYRRFLRPRYRVAYKTVTDMEWRCCQGYGGDDCAE
modifications: GPI (glycosylphosphatidylinositol) anchor at the COOH-terminal end
notes: Expressed in transfected HEK293T cells and tested in cell extracts; also called EMI-domain-GPI-anchor; GPI anchored EMI domain
As for B1, the binding result in assay [3] is reported as “binds”.

B2: emilin1ΔEMI: emilin protein lacking the EMI-domain, used as control (protein)
chain: ASYPPRGFSLYTGSSGALSPGGPQAQIAPRPASSPAPALGPASSTPRPLARPARPNLSGSSAGSPLSGLGGEGPGESEKVQQLEEQVQSLTKELQGLRGVLQGLSGRLAEDVQRAVETAFNGRQQPADAAARPGVHETLNEIQHQLQLLDTRVSTHDQELGHLNNHHGGSSSSGGSRAPAPASAPPGPSEELLRQLEQRLQESCSVCLAGLDGFRRQQQEDRERLRAMEKLLASVEERQRHLAGLAVGRRPPQECCSPELGRRLAELERRLDVVAGSVTVLSGRRGTELGGAAGQGGHPPGYTSLASRLSRLEDRFNSTLGPSEEQEESWPGAPGGLSHWLPAARGRLEQLGGLLANVSGELGGRLDLLEEQVAGAMQACGQLCSGAPGEQDSQVSEILSALERRVLDSEGQLRLVGSGLHTVEAAGEARQATLEGLQEVVGRLQDRVDAQDETAAEFTLRLNLTAARLGQLEGLLQAHGDEGCGACGGVQEELGRLRDGVERCSCPLLPPRGPGAGPGVGGPSRGPLDGFSVFGGSSGSALQALQGELSEVILSFSSLNDSLNELQTTVEGQGADLADLGATKDRIISEINRLQQEATEHATESEERFRGLEEGQAQAGQCPSLEGRLGRLEGVCERLDTVAGGLQGLREGLSRHVAGLWAGLRETNTTSQMQAALLEKLVGGQAGLGRRLGALNSSLQLLEDRLHQLSLKDLTGPAGEAGPPGPPGLQGPPGPAGPPGSPGKDGQEGPIGPPGPQGEQGVEGAPAAPVPQVAFSAALSLPRSEPGTVPFDRVLLNDGGYYDPETGVFTAPLAGRYLLSAVLTGHRHEKVEAVLSRSNQGVARVDSGGYEPEGLENKPVAESQPSPGTLGVFSLILPLQAGDTVCVDLVMGQLAHSEEPLTIFSGALLYGDPELEHA
With B2, the “Effect” value in assay [2] was “showed no effect on pro TGF-β”.

B3: emilin 1-KDEL: emilin 1 with KDEL sequence inserted upstream the STOP codon; retained intracellularly, not secreted (protein)
chain: ASYPPRGFSLYTGSSGALSPGGPQAQIAPRPASRHRNWCAYVVTRTVSCVLEDGVETYVKYQPCAWGQPQCPQSIMYRRFLRPRYRVAYKTVTDMEWRCCQGYGGDDCAESPAPALGPASSTPRPLARPARPNLSGSSAGSPLSGLGGEGPGESEKVQQLEEQVQSLTKELQGLRGVLQGLSGRLAEDVQRAVETAFNGRQQPADAAARPGVHETLNEIQHQLQLLDTRVSTHDQELGHLNNHHGGSSSSGGSRAPAPASAPPGPSEELLRQLEQRLQESCSVCLAGLDGFRRQQQEDRERLRAMEKLLASVEERQRHLAGLAVGRRPPQECCSPELGRRLAELERRLDVVAGSVTVLSGRRGTELGGAAGQGGHPPGYTSLASRLSRLEDRFNSTLGPSEEQEESWPGAPGGLSHWLPAARGRLEQLGGLLANVSGELGGRLDLLEEQVAGAMQACGQLCSGAPGEQDSQVSEILSALERRVLDSEGQLRLVGSGLHTVEAAGEARQATLEGLQEVVGRLQDRVDAQDETAAEFTLRLNLTAARLGQLEGLLQAHGDEGCGACGGVQEELGRLRDGVERCSCPLLPPRGPGAGPGVGGPSRGPLDGFSVFGGSSGSALQALQGELSEVILSFSSLNDSLNELQTTVEGQGADLADLGATKDRIISEINRLQQEATEHATESEERFRGLEEGQAQAGQCPSLEGRLGRLEGVCERLDTVAGGLQGLREGLSRHVAGLWAGLRETNTTSQMQAALLEKLVGGQAGLGRRLGALNSSLQLLEDRLHQLSLKDLTGPAGEAGPPGPPGLQGPPGPAGPPGSPGKDGQEGPIGPPGPQGEQGVEGAPAAPVPQVAFSAALSLPRSEPGTVPFDRVLLNDGGYYDPETGVFTAPLAGRYLLSAVLTGHRHEKVEAVLSRSNQGVARVDSGGYEPEGLENKPVAESQPSPGTLGVFSLILPLQAGDTVCVDLVMGQLAHSEEPLTIFSGALLYGDPELEHAKDEL
Turning to B3, in assay [2] (CAGA12-lux and CMV-lacZ, FIG. 6C), the “Luciferase expression stimulated by transfected pro TGF-β” value is reported as “abolishes its inhibitory action on the effects of pro TGF-β”.

B4: multimerin 2: emilin family protein produced by endothelial cells, GenBank NP—079032 (protein)
chain: QASSTSLSDLQSSRTPGVWKAEAEDTGKDPVGRNWCPYPMSKLVTLLALCKTEKFLIHSQQPCPQGAPDCQKVKVMYRMAHKPVYQVKQKVLTSLAWRCCPGYTGPNCEHHDSMAIPEPADPGDSHQEPQDGPVSFKPGHLAAVINEVEVQQEQQEHLLGDLQNDVHRVADSLPGLWKALPGNLTAAVMEANQTGHEFPDRSLEQVLLPHVDTFLQVHFSPIWRSFNQSLHSLTQAIRNLSLDVEANRQAISRVQDSAVARADFQELGAKFEAKVQENTQRVGQLRQDVEDRLHAQHFTLHRSISELQADVDTKLKRLHKAQEAPGTNGSLVLATPGAGARPEPDSLQARLGQLQRNLSELHMTTARREEELQYTLEDMRATLTRHVDEIKELYSESDETFDQISKVERQVEELQVNHTALRELRVILMEKSLIMEENKEEVERQLLELNLTLQHLQGGHADLIKYVKDCNCQKLYLDLDVIREGQRDATRALEETQVSLDERRQLDGSSLQALQNAVDAVSLAVDAHKAEGERARAATSRLRSQVQALDDEVGALKAAAAEARHEVRQLHSAFAALLEDALRHEAVLAALFGEEVLEEMSEQTPGPLPLSYEQIRVALQDAASGLQEQALGWDELAARVTALEQASEPPRPAEHLEPSHDAGREEAATTALAGLARELQSLSNDVKNVGRCCEAEAGAGAASLNASLHGLHNALFATQRSLEQHQRLFHSLFGNFQGLMEANVSLDLGKLQTMLSRKGKKQQKDLEAPRKRDKKEAEPLVDIRVTGPVPGALGAALWEAGSPVAFYASFSEGTAALQTVKFNTTYINIGSSYFPEHGYFRAPERGVYLFAVSVEFGPGPGTGQLVFGGHHRTPVCTTGQGSGSTATVFAMAELQKGERVWFELTQGSITKRSLSGTAFGGFLMFKT
For the molecule B4, in assay [2], the “Effect” value is given as “antagonize TGF-β activity at the of pro-TGF-β level”.
